Measurements taken from publication PMC9015690 (Science signaling, 2021).

Molecular target: Wild type CXCL12 (CXCL12-WT) (UniProt P48061-2 22-89)
Assay: ITC

Wild type CXCL12 (CXCL12-WT), sequence (P48061 22-89): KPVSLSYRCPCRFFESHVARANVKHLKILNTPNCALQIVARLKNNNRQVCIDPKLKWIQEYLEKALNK

B1: ACKR1^N-term, sixty-amino acid peptide corresponding to the extracellular N-terminus of ACKR1 (domain or fragment, UniProt Q16570 1-60, looked up)
chain: MGNALHRAELSPSTENSSQLDFEDVWNSSYGVNDSFPDGDYGANLEAAAPAHSANLLDDS
- Kd: 4 µM
- stoichiometry N: ~0.5
